Laboratory results from patent US20100022456A1 (Novo Nordisk, published 2010).
Residue numbers refer to the chain shown, from its start. In names and notes the source's numbering stands. Blank lines part the entries; values can stand above or below the binder they belong to.

Biological target: T1, Ser-hPRLR(1-210) (human, UniProt P16471 25-234)
T1 construct: range 1-210; Amine-coupled to a CM5 chip in the SPR assay; also called soluble form of the receptor; PRL receptor
T1 sequence: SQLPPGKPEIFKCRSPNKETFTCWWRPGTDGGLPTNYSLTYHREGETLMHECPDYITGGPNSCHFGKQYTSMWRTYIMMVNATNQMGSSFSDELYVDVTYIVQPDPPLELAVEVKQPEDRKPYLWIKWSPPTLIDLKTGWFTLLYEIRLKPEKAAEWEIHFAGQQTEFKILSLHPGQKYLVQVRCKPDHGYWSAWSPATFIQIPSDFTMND
Test: SPR (Biacore T100), receptor amine-coupled to CM5 chip, ligand injected
Procedure: The soluble form of the receptor (10 μg/ml in 10 mM sodium acetate, pH 4.0) was injected into a Biacore T100 instrument and coupled to a CM5 sensor chip by amine coupling chemistry. The immobilized level was about 500 RUs of coupled receptor. […] Regeneration was accomplished with 4.5 M MgCl₂ for 90 sec with a flow rate of 30 μl/min between runs.

B1: Disulfide bridged PRL 12-199 Q12S E128C dimer (ligand)
chain: SVTLRDLFDRAVVLSHYIHNLSSEMFSEFDKRYTHGRGFITKAINSCHTSSLATPEDKEQAQQMNQKDFLSLIVSILRSWNEPLYHLVTEVRGMQEAPEAILSKAVEIEEQTKRLLCGMELIVSQVHPETKENEIYPVWSGLPSLQMADEESRLSAYYNLLHCLRRDSHKIDNYLKLLKCRIIHNNNC
modifications: intermolecular disulfide bridge between Cys 128 of the two monomers
notes: also called PRL dimer 1; 0033
Kd: 6 nM

B4: PRL(12-199) Q12S G129R (ligand)
chain: B1 chain with C117E, G118R
notes: Monomeric prolactin receptor antagonist analogue; also called PRL G129R analog
Kd: 30 nM

Further binders by falling Kd, results first:

Kd: 20 nM
B3: Disulfide bridged PRL 12-199 Q12S R125C dimer (ligand)
chain: B1 chain with R114C, C117E
modifications: intermolecular disulfide bridge between Cys 125 of the two monomers

Kd: 3 nM
B2: Disulfide bridged PRL 12-199 Q12S S61A E128C dimer (ligand)
chain: B1 chain with S50A
modifications: intermolecular disulfide bridge between Cys 128 of the two monomers
